{"source": "the supplement of paper PMC9112550", "about": "“Optimization of the antimicrobial peptide Bac7 by deep mutational scanning” (BMC Biology, 2022);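 note: peptides expressed intracellularly from a pBAD plasmid library in pooled LB shake-flask culture, induced with 0.3% L-arabinose, DNA abundance read by NGS, three biological replicates, DESeq2 with apeglm shrinkage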"}
{"system": "Escherichia coli TOP10", "assay": "shrunken log2 fold change of peptide-encoding DNA abundance (4.5 h post-induction vs induction); higher = less antimicrobial activity (less host growth inhibition)", "settings": "time post-induction: 4.5 h; library: site-saturation at positions 5, 18, 19, 20"}
{"sequence": "RRIRERPPRLPRPRPRPKIQPRP", "shrunken log2 fold change": -0.259}
{"sequence": "RRIRFRPPRLPRPRPRPHYLPRP", "shrunken log2 fold change": -0.217}
{"sequence": "RRIRSRPPRLPRPRPRPYGNPRP", "shrunken log2 fold change": -0.621}
{"sequence": "RRIRGRPPRLPRPRPRPYGYPRP", "shrunken log2 fold change": 0.158}
{"sequence": "RRIRRRPPRLPRPRPRPVPGPRP", "shrunken log2 fold change": 0.402}
{"sequence": "RRIRFRPPRLPRPRPRPQCGPRP", "shrunken log2 fold change": -0.0775}
{"sequence": "RRIRIRPPRLPRPRPRPVMRPRP", "shrunken log2 fold change": 0.144}
{"sequence": "RRIRVRPPRLPRPRPRPFQPPRP", "shrunken log2 fold change": -0.152}
{"sequence": "RRIRLRPPRLPRPRPRPTVGPRP", "shrunken log2 fold change": 0.0924}
{"sequence": "RRIRSRPPRLPRPRPRPDLNPRP", "shrunken log2 fold change": 0.0448}
{"sequence": "RRIRSRPPRLPRPRPRPVNMPRP", "shrunken log2 fold change": -0.103}
{"sequence": "RRIRSRPPRLPRPRPRPPDSPRP", "shrunken log2 fold change": 0.322}
{"sequence": "RRIRERPPRLPRPRPRPGENPRP", "shrunken log2 fold change": 0.00425}
{"sequence": "RRIRMRPPRLPRPRPRPVAHPRP", "shrunken log2 fold change": 0.148}
{"sequence": "RRIRQRPPRLPRPRPRPGFQPRP", "shrunken log2 fold change": 0.00598}
{"sequence": "RRIRMRPPRLPRPRPRPFTHPRP", "shrunken log2 fold change": -0.107}
{"sequence": "RRIRLRPPRLPRPRPRPNVHPRP", "shrunken log2 fold change": -0.505}
{"sequence": "RRIRWRPPRLPRPRPRPFLRPRP", "shrunken log2 fold change": 0.0966}
{"sequence": "RRIRNRPPRLPRPRPRPYILPRP", "shrunken log2 fold change": -1.07}
{"sequence": "RRIRERPPRLPRPRPRPLQCPRP", "shrunken log2 fold change": -0.254}
{"sequence": "RRIRVRPPRLPRPRPRPFNAPRP", "shrunken log2 fold change": -0.563}
{"sequence": "RRIRQRPPRLPRPRPRPSRFPRP", "shrunken log2 fold change": 3.97}
{"sequence": "RRIRRRPPRLPRPRPRPQMQPRP", "shrunken log2 fold change": -0.205}
{"sequence": "RRIRLRPPRLPRPRPRPSGHPRP", "shrunken log2 fold change": -0.208}
{"sequence": "RRIRFRPPRLPRPRPRPRHFPRP", "shrunken log2 fold change": 0.0931}
{"sequence": "RRIRTRPPRLPRPRPRPCLEPRP", "shrunken log2 fold change": -0.279}
{"sequence": "RRIRPRPPRLPRPRPRPRSPPRP", "shrunken log2 fold change": 0.592}
{"sequence": "RRIRHRPPRLPRPRPRPFAFPRP", "shrunken log2 fold change": -0.121}
{"sequence": "RRIRVRPPRLPRPRPRPATCPRP", "shrunken log2 fold change": -0.164}
{"sequence": "RRIRMRPPRLPRPRPRPGRNPRP", "shrunken log2 fold change": 0.344}
{"sequence": "RRIRHRPPRLPRPRPRPLLYPRP", "shrunken log2 fold change": -0.528}
{"sequence": "RRIRSRPPRLPRPRPRPAHCPRP", "shrunken log2 fold change": 0.0412}
{"sequence": "RRIRFRPPRLPRPRPRPPYIPRP", "shrunken log2 fold change": -0.282}
{"sequence": "RRIRMRPPRLPRPRPRPDNAPRP", "shrunken log2 fold change": -0.267}
{"sequence": "RRIRKRPPRLPRPRPRPNCIPRP", "shrunken log2 fold change": -0.0156}
{"sequence": "RRIRHRPPRLPRPRPRPEDTPRP", "shrunken log2 fold change": 0.0437}
{"sequence": "RRIRYRPPRLPRPRPRPGDKPRP", "shrunken log2 fold change": -0.288}
{"sequence": "RRIRDRPPRLPRPRPRPVRCPRP", "shrunken log2 fold change": 0.339}
{"sequence": "RRIRQRPPRLPRPRPRPGYPPRP", "shrunken log2 fold change": -0.181}
{"sequence": "RRIRTRPPRLPRPRPRPVHIPRP", "shrunken log2 fold change": -0.149}
{"sequence": "RRIRYRPPRLPRPRPRPNCMPRP", "shrunken log2 fold change": -0.974}
{"sequence": "RRIRQRPPRLPRPRPRPGFAPRP", "shrunken log2 fold change": 0.249}
{"sequence": "RRIRDRPPRLPRPRPRPTNLPRP", "shrunken log2 fold change": -0.182}
{"sequence": "RRIRWRPPRLPRPRPRPTHFPRP", "shrunken log2 fold change": -0.478}
{"sequence": "RRIRERPPRLPRPRPRPRNLPRP", "shrunken log2 fold change": -0.514}
{"sequence": "RRIRFRPPRLPRPRPRPTFYPRP", "shrunken log2 fold change": -0.366}
{"sequence": "RRIRFRPPRLPRPRPRPQRRPRP", "shrunken log2 fold change": -0.177}
{"sequence": "RRIRFRPPRLPRPRPRPWYIPRP", "shrunken log2 fold change": -0.623}
{"sequence": "RRIRSRPPRLPRPRPRPPKHPRP", "shrunken log2 fold change": 0.2}
{"sequence": "RRIRFRPPRLPRPRPRPIDYPRP", "shrunken log2 fold change": -0.155}
{"sequence": "RRIRMRPPRLPRPRPRPKQPPRP", "shrunken log2 fold change": 2.34}
{"sequence": "RRIRDRPPRLPRPRPRPVLCPRP", "shrunken log2 fold change": 0.28}
{"sequence": "RRIRRRPPRLPRPRPRPHLMPRP", "shrunken log2 fold change": 0.226}
{"sequence": "RRIRRRPPRLPRPRPRPECPPRP", "shrunken log2 fold change": 0.176}
{"sequence": "RRIRYRPPRLPRPRPRPIIGPRP", "shrunken log2 fold change": -0.178}
{"sequence": "RRIRRRPPRLPRPRPRPLHFPRP", "shrunken log2 fold change": 0.397}
{"sequence": "RRIRQRPPRLPRPRPRPGLWPRP", "shrunken log2 fold change": 0.452}
{"sequence": "RRIRFRPPRLPRPRPRPKTYPRP", "shrunken log2 fold change": -0.578}
{"sequence": "RRIRKRPPRLPRPRPRPTYYPRP", "shrunken log2 fold change": -0.442}
{"sequence": "RRIRMRPPRLPRPRPRPNSDPRP", "shrunken log2 fold change": 0.0685}
{"sequence": "RRIRGRPPRLPRPRPRPHMFPRP", "shrunken log2 fold change": 0.445}
{"sequence": "RRIRIRPPRLPRPRPRPIYPPRP", "shrunken log2 fold change": -0.304}
{"sequence": "RRIRIRPPRLPRPRPRPFCGPRP", "shrunken log2 fold change": -0.228}
{"sequence": "RRIRYRPPRLPRPRPRPMHKPRP", "shrunken log2 fold change": -0.454}
{"sequence": "RRIRPRPPRLPRPRPRPKVYPRP", "shrunken log2 fold change": -0.292}
{"sequence": "RRIRRRPPRLPRPRPRPQPVPRP", "shrunken log2 fold change": 0.299}
{"sequence": "RRIRTRPPRLPRPRPRPKIRPRP", "shrunken log2 fold change": 0.0372}
{"sequence": "RRIRDRPPRLPRPRPRPVTLPRP", "shrunken log2 fold change": -0.283}
{"sequence": "RRIRKRPPRLPRPRPRPRVWPRP", "shrunken log2 fold change": 0.809}
{"sequence": "RRIRHRPPRLPRPRPRPVVYPRP", "shrunken log2 fold change": -0.186}
{"sequence": "RRIRGRPPRLPRPRPRPPWEPRP", "shrunken log2 fold change": 0.528}
{"sequence": "RRIRQRPPRLPRPRPRPYGHPRP", "shrunken log2 fold change": -0.473}
{"sequence": "RRIRLRPPRLPRPRPRPALVPRP", "shrunken log2 fold change": -0.0636}
{"sequence": "RRIRKRPPRLPRPRPRPNGVPRP", "shrunken log2 fold change": 0.0149}
{"sequence": "RRIRCRPPRLPRPRPRPFPLPRP", "shrunken log2 fold change": -0.0156}
{"sequence": "RRIRNRPPRLPRPRPRPETSPRP", "shrunken log2 fold change": 0.24}
{"sequence": "RRIRDRPPRLPRPRPRPVEHPRP", "shrunken log2 fold change": 0.115}
{"sequence": "RRIRVRPPRLPRPRPRPNFPPRP", "shrunken log2 fold change": 0.0508}
{"sequence": "RRIRERPPRLPRPRPRPKCFPRP", "shrunken log2 fold change": -0.193}
{"sequence": "RRIRKRPPRLPRPRPRPDDHPRP", "shrunken log2 fold change": 0.0199}
{"sequence": "RRIRARPPRLPRPRPRPGHVPRP", "shrunken log2 fold change": 0.0499}
{"sequence": "RRIRLRPPRLPRPRPRPKHQPRP", "shrunken log2 fold change": 0.125}
{"sequence": "RRIRDRPPRLPRPRPRPQFKPRP", "shrunken log2 fold change": -0.0159}
{"sequence": "RRIRMRPPRLPRPRPRPLRRPRP", "shrunken log2 fold change": 1.94}
{"sequence": "RRIRKRPPRLPRPRPRPERPPRP", "shrunken log2 fold change": 0.407}
{"sequence": "RRIRFRPPRLPRPRPRPWALPRP", "shrunken log2 fold change": 0.00634}
{"sequence": "RRIRGRPPRLPRPRPRPPRNPRP", "shrunken log2 fold change": 1.1}
{"sequence": "RRIRPRPPRLPRPRPRPEQGPRP", "shrunken log2 fold change": -0.178}
{"sequence": "RRIRWRPPRLPRPRPRPFAIPRP", "shrunken log2 fold change": 0.086}
{"sequence": "RRIRERPPRLPRPRPRPHIEPRP", "shrunken log2 fold change": 0.0737}
{"sequence": "RRIRHRPPRLPRPRPRPCESPRP", "shrunken log2 fold change": 0.0295}
{"sequence": "RRIRARPPRLPRPRPRPPQIPRP", "shrunken log2 fold change": 0.599}
{"sequence": "RRIRSRPPRLPRPRPRPMVEPRP", "shrunken log2 fold change": 0.884}
{"sequence": "RRIRTRPPRLPRPRPRPFPCPRP", "shrunken log2 fold change": -0.197}
{"sequence": "RRIRIRPPRLPRPRPRPAWCPRP", "shrunken log2 fold change": -0.0802}
{"sequence": "RRIRMRPPRLPRPRPRPINDPRP", "shrunken log2 fold change": -0.401}
{"sequence": "RRIRSRPPRLPRPRPRPRQYPRP", "shrunken log2 fold change": -0.274}
{"sequence": "RRIRERPPRLPRPRPRPKTLPRP", "shrunken log2 fold change": -0.185}
{"sequence": "RRIRFRPPRLPRPRPRPFYWPRP", "shrunken log2 fold change": -0.217}
{"sequence": "RRIRQRPPRLPRPRPRPPFTPRP", "shrunken log2 fold change": -0.0512}
{"sequence": "RRIRWRPPRLPRPRPRPKNRPRP", "shrunken log2 fold change": 0.017}
{"sequence": "RRIRTRPPRLPRPRPRPMREPRP", "shrunken log2 fold change": 0.864}
{"sequence": "RRIRERPPRLPRPRPRPPTDPRP", "shrunken log2 fold change": -0.0968}
{"sequence": "RRIRKRPPRLPRPRPRPGPTPRP", "shrunken log2 fold change": 0.65}
{"sequence": "RRIRRRPPRLPRPRPRPWSMPRP", "shrunken log2 fold change": -0.121}
{"sequence": "RRIRGRPPRLPRPRPRPKIMPRP", "shrunken log2 fold change": 0.322}
{"sequence": "RRIRARPPRLPRPRPRPMFVPRP", "shrunken log2 fold change": -0.134}
{"sequence": "RRIRYRPPRLPRPRPRPNMWPRP", "shrunken log2 fold change": -0.391}
{"sequence": "RRIRWRPPRLPRPRPRPQGWPRP", "shrunken log2 fold change": 0.0714}
{"sequence": "RRIRCRPPRLPRPRPRPHWKPRP", "shrunken log2 fold change": -0.126}
{"sequence": "RRIRCRPPRLPRPRPRPMIAPRP", "shrunken log2 fold change": 0.111}
{"sequence": "RRIRMRPPRLPRPRPRPMQNPRP", "shrunken log2 fold change": 0.365}
{"sequence": "RRIRSRPPRLPRPRPRPFSTPRP", "shrunken log2 fold change": -0.372}
{"sequence": "RRIRSRPPRLPRPRPRPFPGPRP", "shrunken log2 fold change": 0.0161}
{"sequence": "RRIRPRPPRLPRPRPRPEHPPRP", "shrunken log2 fold change": 0.231}
{"sequence": "RRIRCRPPRLPRPRPRPQIFPRP", "shrunken log2 fold change": 2.2}
{"sequence": "RRIRMRPPRLPRPRPRPQWIPRP", "shrunken log2 fold change": -0.00285}
{"sequence": "RRIRKRPPRLPRPRPRPRTIPRP", "shrunken log2 fold change": 0.262}
{"sequence": "RRIRPRPPRLPRPRPRPNSGPRP", "shrunken log2 fold change": 0.0788}
{"sequence": "RRIRKRPPRLPRPRPRPRPIPRP", "shrunken log2 fold change": 0.824}
{"sequence": "RRIRHRPPRLPRPRPRPELPPRP", "shrunken log2 fold change": -0.056}
{"sequence": "RRIRARPPRLPRPRPRPHERPRP", "shrunken log2 fold change": 0.0956}
{"sequence": "RRIRERPPRLPRPRPRPINYPRP", "shrunken log2 fold change": -0.286}
{"sequence": "RRIRQRPPRLPRPRPRPQNMPRP", "shrunken log2 fold change": -0.506}
{"sequence": "RRIRGRPPRLPRPRPRPGALPRP", "shrunken log2 fold change": 0.723}
